One block for each substance: values may come before it.
Tests used:
Test in all cases: cell-based or functional assay
[1] = biological target: FKBP.FRB.ΔC9 expressed from pBP1311-pSFG.FKBP.FRB.ΔC9.T2A-ΔCD19
[2] = biological target: FRB.FKBP.ΔC9 expressed from pBP1310-pSFG.FRB.FKBP.ΔC9.T2A-ΔCD19
[3] = biological target: ΔMyr.iMC (MyD88.CD40.Fv'.Fv) expressed from pBP0606-pSFG-k-ΔMyr.iMC.2A-ΔCD19 (human)
[4] = biological target: CD19-CAR-FRBl2 (1st generation CD19-CAR fused to two tandem FRBl domains, co-expressed with iCaspase9 from iC9-CAR(19).FRBl2)
[5] = biological target: Her2-CAR-FRBl2 (1st generation Her2-CAR fused to two tandem FRBl domains)

FRBL2.Caspase9 expressed from pBP0668-pSFG-FRBlx2.Caspase9.2A-Q.8stm.CD3zeta, sequence (chain, part): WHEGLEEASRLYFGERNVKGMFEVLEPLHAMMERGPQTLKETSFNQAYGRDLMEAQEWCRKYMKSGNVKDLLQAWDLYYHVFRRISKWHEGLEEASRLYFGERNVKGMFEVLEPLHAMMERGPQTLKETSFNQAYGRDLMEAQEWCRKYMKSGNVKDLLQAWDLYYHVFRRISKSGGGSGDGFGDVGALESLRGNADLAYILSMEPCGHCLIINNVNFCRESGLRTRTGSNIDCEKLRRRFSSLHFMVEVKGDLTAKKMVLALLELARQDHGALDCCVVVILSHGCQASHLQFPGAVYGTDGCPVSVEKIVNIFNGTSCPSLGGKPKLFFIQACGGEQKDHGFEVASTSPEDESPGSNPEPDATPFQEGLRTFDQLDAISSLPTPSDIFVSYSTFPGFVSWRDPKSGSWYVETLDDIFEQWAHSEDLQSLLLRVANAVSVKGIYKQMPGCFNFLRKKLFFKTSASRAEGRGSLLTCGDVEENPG
FKBP.FRB.ΔC9 expressed from pBP1311-pSFG.FKBP.FRB.ΔC9.T2A-ΔCD19, sequence (P55211 other isoform, or with tags, fused parts or gaps, stated change not applied): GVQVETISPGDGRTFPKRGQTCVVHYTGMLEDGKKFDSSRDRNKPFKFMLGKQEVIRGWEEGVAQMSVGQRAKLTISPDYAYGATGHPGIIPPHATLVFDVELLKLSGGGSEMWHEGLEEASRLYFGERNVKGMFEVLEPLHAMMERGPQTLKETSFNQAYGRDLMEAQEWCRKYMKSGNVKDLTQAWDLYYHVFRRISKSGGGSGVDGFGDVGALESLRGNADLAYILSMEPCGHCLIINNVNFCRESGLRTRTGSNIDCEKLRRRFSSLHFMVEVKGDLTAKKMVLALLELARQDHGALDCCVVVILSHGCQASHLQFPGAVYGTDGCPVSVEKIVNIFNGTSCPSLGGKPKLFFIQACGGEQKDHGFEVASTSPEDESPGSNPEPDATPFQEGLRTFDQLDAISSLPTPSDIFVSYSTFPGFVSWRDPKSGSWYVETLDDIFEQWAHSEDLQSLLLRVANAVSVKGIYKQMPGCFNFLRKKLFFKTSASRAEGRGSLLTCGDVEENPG
ΔMyr.iMC (MyD88.CD40.Fv'.Fv) expressed from pBP0606-pSFG-k-ΔMyr.iMC.2A-ΔCD19 (human), sequence (main, as listed by the source mutant): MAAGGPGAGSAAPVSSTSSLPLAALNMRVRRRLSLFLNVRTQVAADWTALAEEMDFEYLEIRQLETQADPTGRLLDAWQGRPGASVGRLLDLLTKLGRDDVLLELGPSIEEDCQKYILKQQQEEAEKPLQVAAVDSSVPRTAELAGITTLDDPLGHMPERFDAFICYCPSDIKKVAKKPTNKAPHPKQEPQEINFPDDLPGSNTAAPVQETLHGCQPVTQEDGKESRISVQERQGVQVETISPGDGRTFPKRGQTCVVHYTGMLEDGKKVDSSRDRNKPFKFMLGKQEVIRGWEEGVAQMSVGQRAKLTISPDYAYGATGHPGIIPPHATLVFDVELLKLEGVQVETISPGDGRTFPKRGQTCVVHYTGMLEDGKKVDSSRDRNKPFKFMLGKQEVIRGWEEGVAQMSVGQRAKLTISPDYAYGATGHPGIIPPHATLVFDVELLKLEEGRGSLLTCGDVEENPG
FRB.FKBP.ΔC9 expressed from pBP1310-pSFG.FRB.FKBP.ΔC9.T2A-ΔCD19, sequence (P55211 other isoform, or with tags, fused parts or gaps, stated change not applied): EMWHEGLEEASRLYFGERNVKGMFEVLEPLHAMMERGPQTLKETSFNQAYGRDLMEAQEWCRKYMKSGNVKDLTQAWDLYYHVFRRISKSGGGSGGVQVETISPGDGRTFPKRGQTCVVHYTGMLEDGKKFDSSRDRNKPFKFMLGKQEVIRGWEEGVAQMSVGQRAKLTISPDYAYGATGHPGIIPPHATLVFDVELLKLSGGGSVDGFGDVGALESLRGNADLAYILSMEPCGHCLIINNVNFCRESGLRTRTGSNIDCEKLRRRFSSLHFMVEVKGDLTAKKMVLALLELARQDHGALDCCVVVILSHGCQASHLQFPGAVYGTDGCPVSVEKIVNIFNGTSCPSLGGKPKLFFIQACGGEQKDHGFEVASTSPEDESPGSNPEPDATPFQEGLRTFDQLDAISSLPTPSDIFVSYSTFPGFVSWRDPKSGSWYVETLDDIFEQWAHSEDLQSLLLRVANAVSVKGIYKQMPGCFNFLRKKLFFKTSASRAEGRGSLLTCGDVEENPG

rapamycin concentration (small molecule) at which the construct was still highly active, caspase 3/7 and SRα-SEAP assays in transfected 293 cells [1]: 100 pM
Substance: FKBP.FRB.ΔC9 expressed from pBP1311-pSFG.FKBP.FRB.ΔC9.T2A-ΔCD19

rapamycin concentration (small molecule) at which the construct was still highly active, caspase 3/7 and SRα-SEAP assays in transfected 293 cells [2]: 100 pM
Substance: FRB.FKBP.ΔC9 expressed from pBP1310-pSFG.FRB.FKBP.ΔC9.T2A-ΔCD19

rapamycin concentration at which doubly transduced (CD34+CD19+) primary T cells were eliminated, flow cytometry after 24 hours [3]: 2 nM
Substance: FRBL2.Caspase9 expressed from pBP0668-pSFG-FRBlx2.Caspase9.2A-Q.8stm.CD3zeta

SRα-SEAP reporter activity of transfected 293 cells after overnight rapamycin (small-molecule heterodimerizer) [4]: 50 % decrease
SRα-SEAP reporter activity of transfected 293 cells after overnight rapamycin (small-molecule heterodimerizer) [5]: 50 % decrease
Substance: iCaspase-9 as used in Example 17

— US20240368574A1
